The target of this data set is T1, BUD13-2xFLAG (UniProt Q9BRD0 1-619).
T1 sequence: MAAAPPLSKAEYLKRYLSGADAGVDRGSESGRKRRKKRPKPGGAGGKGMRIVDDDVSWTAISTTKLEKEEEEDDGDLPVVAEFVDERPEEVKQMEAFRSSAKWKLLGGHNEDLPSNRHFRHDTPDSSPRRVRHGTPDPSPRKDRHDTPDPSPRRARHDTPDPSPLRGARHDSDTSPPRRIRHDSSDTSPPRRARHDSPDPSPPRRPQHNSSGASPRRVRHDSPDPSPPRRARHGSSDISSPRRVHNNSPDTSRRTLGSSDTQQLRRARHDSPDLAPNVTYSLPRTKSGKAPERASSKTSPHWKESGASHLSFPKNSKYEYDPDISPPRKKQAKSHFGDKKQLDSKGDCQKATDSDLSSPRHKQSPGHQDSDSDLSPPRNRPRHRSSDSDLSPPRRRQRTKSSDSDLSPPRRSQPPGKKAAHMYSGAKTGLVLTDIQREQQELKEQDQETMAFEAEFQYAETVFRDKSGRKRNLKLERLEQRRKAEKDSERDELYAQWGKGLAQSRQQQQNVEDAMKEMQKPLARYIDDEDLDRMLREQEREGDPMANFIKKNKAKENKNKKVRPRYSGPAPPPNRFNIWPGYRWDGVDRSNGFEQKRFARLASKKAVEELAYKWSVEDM
Briefly: EMSA. (In general: Mobility shift assays separate free from complexed probe on a gel.)

In the case of UAAAGUGCUUAUAGUGCAGGUAGUGU (ssRNA) [EMSA miR-20a locus RNA oligo], the binding result is recorded as “no binding”.

These data come from article PMC6659731.
